The text below walks through data of US20210015858A1 (I MAB BIOPHARMA US, published 2021).

Assay [1] has as its target T1, human TIGIT expressed on cell surface (human, UniProt Q495A1 22-244).
T1 sequence (looked up): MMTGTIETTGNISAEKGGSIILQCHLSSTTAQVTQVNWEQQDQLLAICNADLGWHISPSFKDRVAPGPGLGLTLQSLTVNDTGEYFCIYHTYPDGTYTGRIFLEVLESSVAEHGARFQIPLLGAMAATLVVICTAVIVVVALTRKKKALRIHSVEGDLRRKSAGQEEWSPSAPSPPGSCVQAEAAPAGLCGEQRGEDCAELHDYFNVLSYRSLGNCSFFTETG
In words: cell-based or functional assay.

Assay [2] has as its target T2, recombinant His-tagged human TIGIT-ECD protein (human, UniProt Q495A1 22-141).
T2 construct: extracellular domain; The ELISA text only says His-tagged human TIGIT; also called His-tagged TIGIT; human TIGIT protein; not shown: His tag
T2 sequence (looked up): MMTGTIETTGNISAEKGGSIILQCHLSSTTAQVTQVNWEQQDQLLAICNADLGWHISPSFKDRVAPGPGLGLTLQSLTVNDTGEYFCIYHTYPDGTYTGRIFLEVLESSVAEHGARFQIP
Put plainly: SPR affinity ranking (Biacore 8K or T200). A general note: Surface plasmon resonance follows binding to a sensor surface in real time, without labels.

The target of assay [3] is T2, recombinant His-tagged human TIGIT-ECD …. In words: SPR (Biacore T200), antibody captured, His-tagged TIGIT-ECD injected. Here is the method:
The binding of the antibodies to recombinant His-tagged human TIGIT-ECD protein was examined by Biacore T200 using a capture method. The anti-TIGIT antibodies were captured using anti-human Fc antibody or Protein A which were coated on chip. The serial concentrations of his-tagged human TIGIT-ECD protein (0-8 nM) were injected over capture antibodies at the flow rate of 30 μl/min. The dissociation phases were 600 s or 1200 s.

For assay [4] the target is unchanged. Described as above. How it is done:
The anti-TIGIT antibodies were captured using anti-human Fc antibody or Protein A which were coated on the chip. Serial concentrations of His-tagged human TIGIT-ECD protein (0-8 nM) were injected over capture antibodies at the flow rate of 30 μl/min. The dissociation phases were 600 s or 1200 s.
This is another data set of the same source.

The target of a further assay is T3, His-tagged cyno-TIGIT (cyno, UniProt A0A7N9I9V4 89-209).
T3 construct: also called cyno TIGIT protein; not shown: His tag
In words: ELISA.

Assay [5] addresses T2, recombinant His-tagged human TIGIT-ECD …. In words: SPR affinity ranking (Biacore T200).

T3 sequence (A0A7N9I9V4 entry or part of it): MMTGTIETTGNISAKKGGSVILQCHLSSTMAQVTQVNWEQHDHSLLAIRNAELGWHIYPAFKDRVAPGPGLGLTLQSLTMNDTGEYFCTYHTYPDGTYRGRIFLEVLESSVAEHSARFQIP

B1: 90D9 (antibody, V domains shown)
VH: EVQLQQSGPELVKPGASVKISCKTSGYTFTENTMHWVKQSHGKSLEWIGGINPNQGGNRNNQKFKGKATLTVDKSSSTAYMELRSLTSEDSAVYYCARSGLRDYAMDYWGQGTSVTVSS
VL: DIVMTQSHKFMSTSVGDRVSITCKASQHVSTAVVWYQQKPGQSPKLLIYSPSYRYTGVPDRFTGSGSGTDFTFTISSVQAEDLAVYYCQQHYSTPWTFGGGTKLEIK
notes: Mouse hybridoma clone; also called 90D9-chimeric
As a reminder, the Kd is a measure of binding affinity in units of concentration. In general, koff refers to the first-order rate constant of dissociation. As a reminder, the kon is the rate constant with which the complex forms. On to B1, for which, in assay [1], the “maximum ADCC activity (LDH release, NK92-CD16a effector cells on Jurkat-TIGIT target cells)” value (shortened to “maximum ADCC activity”) is 50%. Besides, in assay [2], the dissociation constant (Kd) was 0.296 nM, the koff amounted to 3.25e-05 s⁻¹ and the on-rate (kon) stood at 110000 M⁻¹ s⁻¹. Also, in assay [3], the Kd stood at 0.252 nM, the koff is 0.000156 s⁻¹ and the kon stood at 619000 M⁻¹ s⁻¹. Moreover, in assay [4], the Kd was determined as 0.374 nM, the koff is 0.000167 s⁻¹ and the kon turned out to be 446000 M⁻¹ s⁻¹.

B2: 101E1 (antibody, human IgG1, V domains shown)
VH: DVQLQESGPGLVKPSQSLSLTCTVTGYSITSDYAWNWIRQFPGNKLEWMGYISYSGNTRYNPSLKSRISITRDTSKNQFFLQFNSVTTEDTATYYCSRKYYGSWFPYWGQGTLVTVSA
VL: DIVMTQSHKFMSTSVGDRVSITCKASQDVFTAVAWYQQKPGQSPKLLIYSASYRYTGVPDRFTGSGSGTDFTFTISSVQAEDLAVYYCQQHYSTPWTFGGGTRLEIK
notes: Mouse hybridoma clone; also called 101E1-chimeric
Consider B2, for which the binding result in the assay with His-tagged cyno-TIGIT is on record as “no binding”. Further, the “maximum ADCC activity” value in assay [1] was determined as 50%. Besides, in assay [2], the “apparent Kd (pooled screen)” value is 0.487 nM, the “apparent koff (pooled screen)” value amounted to 0.00114 s⁻¹ and the “apparent kon (pooled screen)” value is 2.34e+06 M⁻¹ s⁻¹. For the same molecule, in assay [3], the “apparent Kd (pooled screen)” value came out at 0.362 nM, the “apparent koff (pooled screen)” value stood at 0.00105 s⁻¹ and the “apparent kon (pooled screen)” value is 2.9e+06 M⁻¹ s⁻¹. In assay [4], the “apparent Kd (pooled screen)” value amounted to 0.362 nM, the “apparent koff (pooled screen)” value came to 0.00105 s⁻¹ and the “apparent kon (pooled screen)” value amounted to 2.9e+06 M⁻¹ s⁻¹.

B3: 101E1HM-1 (antibody, V domains shown)
VH: QVQLQESGPGLVKPSQTLSLTCTVSGYSITDDYAWNWIRQPPGKGLEWMGYISYSGHTKYNPSLKSRVTISRDTSKNQFSLKLSSVTAADTAVYYCARKYYGGWFPRWGQGTLVTVSS
VL: DIQMTQSPSSLSASVGDRVTITCKASQDVFTAVAWYQQKPGKAPKLLIYSASYRPTGVPSRFSGSGSGTDFTFTISSLQPEDFATYYCQQSYSTPWTFGQGTRLEIK
B3: in assay [5], the equilibrium dissociation constant (Kd) amounted to 2.15 nM, the koff was found to be 0.00107 s⁻¹ and the kon was 496000 M⁻¹ s⁻¹.

B4: 101E1HM-5 (antibody, V domains shown)
VH: QVQLQESGPGLVKPSQTLSLTCTVSGYSITDDYAWNWIRQPPGKGLEWMGYISYSGITRYNPSLKSRVTISRDTSKNQFSLKLSSVTAADTAVYYCARKYYGGWFPQWGQGTLVTVSS
VL: DIQMTQSPSSLSASVGDRVTITCKASQDVFTAVAWYQQKPGKAPKLLIYSASYRDTGVPSRFSGSGSGTDFTFTISSLQPEDFATYYCQQSYSTPWTFGQGTRLEIK
With B4, in assay [5], the equilibrium dissociation constant (Kd) worked out at 1.29 nM, the koff came to 0.00209 s⁻¹ and the kon was 1.63e+06 M⁻¹ s⁻¹.

B5: 101E1HM-2 (antibody, V domains shown)
VH: QVQLQESGPGLVKPSQTLSLTCTVSGYSITDDYAWNWIRQPPGKGLEWMGYISYSGNTMYNPSLKSRVTISRDTSKNQFSLKLSSVTAADTAVYYCARKYYGGWFPIWGQGTLVTVSS
VL: DIQMTQSPSSLSASVGDRVTITCKASQDVFTAVAWYQQKPGKAPKLLIYSASYRHTGVPSRFSGSGSGTDFTFTISSLQPEDFATYYCQQSYSTPWTFGQGTRLEIK
B5: in assay [5], the Kd is 1.48 nM, the koff amounted to 0.00191 s⁻¹ and the kon amounted to 1.29e+06 M⁻¹ s⁻¹.

B6: 101E1HM-3 (antibody, V domains shown)
VH: QVQLQESGPGLVKPSQTLSLTCTVSGYSITDDYAWNWIRQPPGKGLEWMGYISYSGDTKYNPSLKSRVTISRDTSKNQFSLKLSSVTAADTAVYYCARKYYGGWFPVWGQGTLVTVSS
VL: DIQMTQSPSSLSASVGDRVTITCKASQDVFTAVAWYQQKPGKAPKLLIYSASNRNTGVPSRFSGSGSGTDFTFTISSLQPEDFATYYCQQQYSTPWTFGQGTRLEIK
Consider B6, for which, in assay [5], the Kd was determined as 0.554 nM, the koff was determined as 0.000717 s⁻¹ and the kon came out at 1.29e+06 M⁻¹ s⁻¹.

B7: 101E1HM-4 (antibody, V domains shown)
VH: QVQLQESGPGLVKPSQTLSLTCTVSGYSITDDYAWNWIRQPPGKGLEWMGYISYSGHTRYNPSLKSRVTISRDTSKNQFSLKLSSVTAADTAVYYCARKYYGSWFPDWGQGTLVTVSS
VL: DIQMTQSPSSLSASVGDRVTITCKASQDVFTAVAWYQQKPGKAPKLLIYSASYRMTGVPSRFSGSGSGTDFTFTISSLQPEDFATYYCQQSYSTPWTFGQGTRLEIK
In the case of B7, in assay [5], the Kd was 3.08 nM, the koff was determined as 0.00439 s⁻¹ and the kon came out at 1.43e+06 M⁻¹ s⁻¹.

B8: 221F11 (antibody, human IgG1, V domains shown)
VH: EIQLQQTGPELVKPGASVNISCKASGYSFTDYIMIWVKQSHGKSLEWIGNIHPYFGNSHYNLKFKGKATLTVDKSSTTAYMQLNSLTSEDSAVYYCARRGITSAHFDYWGQGTTLTVSS
VL: DIVLTQSPASLAVSLGQRATISCRASKSVSTSGYSYMHWYQQKPGQPPKLLIYRASNLESGVPARFSGSGSGTDFTLNIHPVEEEDAATYYCQHSGDLPWTFGGGTKLEIK
notes: Mouse hybridoma clone
B8: the binding result with His-tagged cyno-TIGIT is reported as “no binding”.

B9: 222H4 (antibody, human IgG1, V domains shown)
VH: EVQLQQSGPELVKPGASVKISCKTSGYTFSDYTLHWVKQSHGKNLEWIGGFNPNNGGTNYNQKFKVKASLTIDKSSNTVYMELRSLSSEDSAVYYCARNWAFDYWGQGTTLTVSS
VL: DIVMTQSHKIMSTSLGDRVNITCKASQHVSTAVAWYQQRPGQSPRLLIYSASYRHTGVPDRFTGSGSGTDITFTISSVQTEDLAVYYCQQYYTTPWTFGGGTKLEIK
notes: Mouse hybridoma clone
Turning to B9, in assay [3], the Kd turned out to be 0.242 nM, the koff turned out to be 0.000453 s⁻¹ and the kon stood at 1.87e+06 M⁻¹ s⁻¹.

B10: 143B6 (antibody, human IgG1, V domains shown)
VH: EVQLVESGGGLVMPGGSLKLSCAASGFTFSGFVMSWVRQTPEKRLEWVATINDAGTYTYYSDNLKGRFTISRDNAKNNLYLQMSHLKSEDAGMYYCARDGGLRAWFPYWGPGTLVTVSA
VL: DIQLTQSPASLSASVGETVTITCRASENIYSYLAWYQLKQGKSPQLLVFNTKTLAEGVPSRFSGSGSGTQFSLRIDSLQLEDFGSFYCQHHIGSPRTFGGGTTLEIR
notes: Mouse hybridoma clone
With B10, the binding result in the assay with His-tagged cyno-TIGIT is given as “no binding”.

B11: 116H8 (antibody, human IgG1, V domains shown)
VH: EFQLQQSGPELVKPGASVKISCRASGYSFTAYSMNWVQQTNGKSLEWIGVINPKFGTINYNQKFKGKATLTVDQSSSAAYIQLNSLTSEDSAVYFCARNGNFAWYFDVWGTGTTVTVSS
VL: DIQMTQSPASLSASVGETVTITCRASENIFSYLAWYQQKQGKSPQLLVYNAKTLPEGVPSRFSGSGSGTQFSLKINSLQSEDFGSYYCQHHYGVPWTFGGGTKLEIK
notes: Mouse hybridoma clone
Consider B11, for which the binding result with His-tagged cyno-TIGIT is recorded as “no binding”.

B12: 167F7 (antibody, human IgG1, V domains shown)
VH: EFQLQQSGPELVKPGASVKISCRASGYSFTAYSMNWVQQTNGKSLEWIGVINPKFGTINYNQKFKDKATLTVDHSSSAAYMQLNSLTSEDSAVYFCARNGNFAWYFDVWGTGTTVTVSS
VL: DIQMTQSPASLSASVGETVTITCRASESIFSYLAWYQQKQGKSPQLLAYNAETLAEGVPSRFSGSGSGTQFSLKINSLQSEDFGIYYCQHHFGVPWTFGGGTKLEIK
notes: Mouse hybridoma clone
For the molecule B12, in assay [3], the Kd was found to be 0.024 nM, the koff was 0.000107 s⁻¹ and the kon turned out to be 4.45e+06 M⁻¹ s⁻¹.

B13: 131A12 (antibody, human IgG1, V domains shown)
VH: EFQLQQSGPELVKPGASVKISCRASGYSFTAYSMNWVQQTNGKSLEWIGVINPKFGTTNYNQKFRDKATLTVDHSSSAAYMQLNSLTSEDSAVYFCARNGNFAWYFDVWGTGTTVTVSS
VL: DIQMTQSPASLSASVGETVTITCRASENIFSYLAWYQQKQGKSPQLLAYNAETLAEGVPSRFSGSGSGTQFSLKISSLQSEDFGSYYCQHHFGVPWTFGGGTNLEIK
notes: Mouse hybridoma clone
Regarding B13, in the assay with His-tagged cyno-TIGIT, the binding result is listed as “no binding”.

B14: 350D10 (antibody, human IgG1, V domains shown)
VH: EVKLVESGGALVQPGGSLKLSCAASGFTFSDYYMYWVRQTPEKRLEWVASITKGGGSTYYPDTLKGRFTISRDNAKNTLYLQMSRLKSEDTDMYYCARQSSYDFVMDYWGQGTSVTVSS
VL: DIVMTQSHKFMSTSVGDRVTITCKASQDVDTAVAWYQQKPGQSPKLLIYWASARHTGVPDRFTGSGSGTDFTLTISNVQSEDLADYFCQQYSNYPLTFGVGTKLELK
notes: Mouse hybridoma clone; also called 350D10-chimeric
In the case of B14, in assay [1], the “maximum ADCC activity” value came to 50%. For the same molecule, in assay [2], the Kd amounted to 0.0716 nM, the koff is 0.000189 s⁻¹ and the kon turned out to be 2.64e+06 M⁻¹ s⁻¹. For the same molecule, in assay [3], the Kd was 0.0822 nM, the koff stood at 0.000154 s⁻¹ and the association rate constant (kon) amounted to 1.87e+06 M⁻¹ s⁻¹. Besides, in assay [4], the Kd was 0.0822 nM, the koff was determined as 0.000154 s⁻¹ and the kon turned out to be 1.87e+06 M⁻¹ s⁻¹.
